According to the RNAGym collection of RNA variant scans (doi:10.7554/elife.80360):

B1: Twister Ribozyme (parent)
chain: AACACUGCCAAUGCCGGUCCCAAGCCCGGAUAAAAGUGGAGGGGGCGG

Variants of: B1
Test: self-cleavage, relative activity (ratio to wild type); higher = more cleavage; co-transcriptional

In order of falling self-cleavage:
1. CGCACUGCCAAUGCCGGUCCCAAGCCCGGAUAAAAGUGGAGGGGGCGG [A1C A2G]  1.25
2. AACACUGCCGAUGCCAGUCCCAAGCCCGGAUAAAAGUGGAGGGGGCGG [A10G G16A]  1.13
3. AACACUGCCAAUGCCGGUCCCCAGCCCGGAUAAACGUGGAGGGGGCGG [A22C A35C]  1.01
4. AACGCUGCCAAUGCCGGUCCCAAGCCCGGAUAAAAGUGGAGGGUGCGG [A4G G44U]  0.968
5. AACACUGCCAAUGCCGGUCCCAAGCCCAGAUCAAAGUGGAGGGGGCGG [G28A A32C]  0.941
6. AACACUGCCAGUGACGGUCCCAAGCCCGGAUAAAAGUGGAGGGGGCGG [A11G C14A]  0.941
7. AACACUGCCAUUGCCGGUCCCAAGCCCGGAUAAAAGUGGAGGGGGCAG [A11U G47A]  0.937
8. AACACUGCCAAUGUCGGUCCCAAGCCCGGAUAGAAGUGGAGGGGGCGG [C14U A33G]  0.927
9. AACACUGCCAAUGCCGGUCCCAAGCCCGGAUAAAAGUUGAGGGGGCGG [G38U]  0.923
10. AACACUGCCAAUGCCGGUCCCAAGCCCGGGUAAAAGUGGAGGGGGCAG [A30G G47A]  0.817
11. AACACUGCCCAUGCCGGUCCCUAGCCCGGAUAAAAGUGGAGGGGGCGG [A10C A22U]  0.78
12. AACACUGCCAAUGCCGGUCCCAAGCCCGAAUAAAAGUGGAGGGAGCGG [G29A G44A]  0.738
13. GACACUGCCAAUGCCUGUCCCAAGCCCGGAUAAAAGUGGAGGGGGCGG [A1G G16U]  0.726
14. AACACUGCCAAUGCCGGUCCCAAGCCCGGAUAAAGGUCGAGGGGGCGG [A35G G38C]  0.632
15. AACACGGCCAAUGCCGGUCCCAAGCCCGGAUAAAAGUGGAGGGGGUGG [U6G C46U]  0.632
16. AACACUGUCAAUGCCGGUCCCAAGCCCGGAUAAGAGUGGAGGGGGCGG [C8U A34G]  0.582
17. AAGACUGCCAAUGCCGGUCCCAAGCCCGGAUAAAAGUGGAGGGGGGGG [C3G C46G]  0.568
18. AACACUGCCAAUGCCGGUCCCAAGCCCUGAUAAAAGUGGAGGGGGCUG [G28U G47U]  0.567
19. AACAAUGCCAAUGCCGGUCCCAAGCCCGGAUAAAAGUGGAGGGAGCGG [C5A G44A]  0.556
20. AACACUGCCAGUGCCGGUCCCAAGCCCGGAUAAAAGCGGAGGGGGCGG [A11G U37C]  0.529
21. AACACUGCCAAUGCCGGUCCCAAGCCCGGAUAAAAGUGAAGGGGGCGU [G39A G48U]  0.517
22. AACACCGCCAAUGCCUGUCCCAAGCCCGGAUAAAAGUGGAGGGGGCGG [U6C G16U]  0.371
23. AACACUGCCAAUGCCAGUCCCAAGCCCGGAUAAAAGCGGAGGGGGCGG [G16A U37C]  0.335
24. AACCCUGCCAAUGCCGGUCCCAAGCCCGGAUAAACGUGGAGGGGGCGG [A4C A35C]  0.301
25. AACACUGCCAAUGCCGGUCCCAAGCCCGGAUAGAAGUGGAGGAGGCGG [A33G G43A]  0.268
26. AAUACUGCCAAUGCCGGUCCCAAGCCUGGAUAAAAGUGGAGGGGGCGG [C3U C27U]  0.231
27. AACACUGCCAAUUCCGGUCCCAAGCCUGGAUAAAAGUGGAGGGGGCGG [G13U C27U]  0.212
28. AACACUGCCAAUGUCGGUCCCAAGCCCGGAUAAAAGUGGUGGGGGCGG [C14U A40U]  0.191
29. AACACUGCCAAUUCCGGUCCCAAGCCCGGAUAAAAGUGGAGCGGGCGG [G13U G42C]  0.181
30. AACACUGUCAAUGCCGGUCCCAAGCCCGGAUAAAAGUGAAGGGGGCGG [C8U G39A]  0.161
31. AACACUGCCAAUGCCGGUCCCACGCCCGGAUAAAAGUGGAGGGGGGGG [A23C C46G]  0.155
32. AACACUGCCAAUGCCGGUCCCAAGCCCGGAUAAAAGUGGUGUGGGCGG [A40U G42U]  0.15
33. AACACUGCCAAUGCCGGUACCAAGCCCGGAUAAAAGUGGCGGGGGCGG [C19A A40C]  0.148
34. AACACUGCCAAUGCCGGUCCCAAGCCAGGAUAAAAGUGGAGGAGGCGG [C27A G43A]  0.148
35. AAUACUGCCAAUGCCGGUCCCAAGCUCGGAUAAAAGUGGAGGGGGCGG [C3U C26U]  0.138
36. AACACUGCCAAUGCCGGUCCCAAGCCCGGAUAAAAGUGGAUGCGGCGG [G41U G43C]  0.135
37. AACACUGCCAAUGCCGGUCCCAUGCCCGGAUAAAAAUGGAGGGGGCGG [A23U G36A]  0.132
38. AACACUGCCAAUGCCGGUCCCAAUCCCGGAUAAAAGUGGAGGGGGCCG [G24U G47C]  0.131
39. AAAACUGCCAAUUCCGGUCCCAAGCCCGGAUAAAAGUGGAGGGGGCGG [C3A G13U]  0.127
40. AACACUGCCAAUGCCGGUCCCAAGCCCGGAUAAAAAUGGUGGGGGCGG [G36A A40U]  0.124
41. AACACUGCCAAUGCCGGUCCCAAGCUCGGAUAAAAGGGGAGGGGGCGG [C26U U37G]  0.118
42. AACACUGCCAAUGCCGGUCCCAAGCCCGGCUAAAAGUGCAGGGGGCGG [A30C G39C]  0.107
43. AACACUGCCAAUGCCGUUCGCAAGCCCGGAUAAAAGUGGAGGGGGCGG [G17U C20G]  0.105
44. AACACUGCCAAUGCCGGUCCGAAGCCCGGAUAAGAGUGGAGGGGGCGG [C21G A34G]  0.0977
45. AGCACUGCCAAUGCCGGUCCCAUGCCCGGAUAAAAGUGGAGGGGGCGG [A2G A23U]  0.0843
46. AACACUGCCAAUGCCGGUCCCGAGCCCGCAUAAAAGUGGAGGGGGCGG [A22G G29C]  0.0828
47. AACCCUGCCAAUGCCGGUCCCUAGCCCGGAUAAAAGUGGAGGGGGCGG [A4C A22U]  0.0826
48. AACACUGCCAAUGCCGGUCCCAAUCCCGGAUAAAAGUUGAGGGGGCGG [G24U G38U]  0.0819
49. AACUAUGCCAAUGCCGGUCCCAAGCCCGGAUAAAAGUGGAGGGGGCGG [A4U C5A]  0.0794
50. AAGACUACCAAUGCCGGUCCCAAGCCCGGAUAAAAGUGGAGGGGGCGG [C3G G7A]  0.0769
51. AAAACUGCCAAUGCCGGUCCCAAGCCCGGAUAAAAGUGGACGGGGCGG [C3A G41C]  0.07
52. AACUCUGCCAAUGCCGGUCCCAACCCCGGAUAAAAGUGGAGGGGGCGG [A4U G24C]  0.0697
53. AACACUCCCAAAGCCGGUCCCAAGCCCGGAUAAAAGUGGAGGGGGCGG [G7C U12A]  0.0478
54. ACCACUGCCAAUGCCGGUCCGAAGCCCGGAUAAAAGUGGAGGGGGCGG [A2C C21G]  0.0366
